Reference: patent publication US20250332297A1, “DLL3-SPECIFIC BINDING CONSTRUCTS AND THEIR USE IN RADIOTHERAPY” (MOLECULAR PARTNERS AG, priority 2024, published 2025)

What was measured:
hDLL3-MC38 tumor model = test: Biodistribution of radio-labelled DARPin conjugates in hDLL3-MC38 tumor model; assay type: in vivo, mouse; details: Pb-212 DOTAM conjugate 0.01 mg/kg (10 μCi) i.v., s.c. hDLL3-MC38
Text: hDLL3-MC38 tumor model. ATH mice were purchased from Envigo. General handling and maintenance of mice was done as described above for the NCI-H82 tumor model. hDLL3-MC38 cells were purchased from Biocytogen (Catalog No. 311448). […] Cells were quantified using Countess cell counter.
Biodistribution study. […] Based on immunohistochemistry analyses, the hDLL3-MC38 tumors have a higher level of human DLL3 expression than the NCI-H82 tumors described in Example 3 (data not shown). Biodistribution was monitored at 1 h, 4 h and 24h post-injection. Mice were euthanized by CO2 inhalation and cervical dislocation.
Mice were euthanized by CO2 inhalation and cervical dislocation.

Human DLL3-ECD = biological target: T1, Human DLL3-ECD (Homo sapiens, UniProt Q9NYJ7); test: SPR binding to human DLL3-ECD (Example 11); details: immobilized biotinylated target, 1:1 Langmuir, Tables 14, 15
T1 construct: human DLL3 protein (Q9NYJ7, Gene ID: 10683, residues 27 to 466) linked via an Avi-tag; 3C protease recognition site (C); Fc knob into hole (C); purchased Evitria; host or cells: CHO cells
T1 sequence (Q9NYJ7 27-466): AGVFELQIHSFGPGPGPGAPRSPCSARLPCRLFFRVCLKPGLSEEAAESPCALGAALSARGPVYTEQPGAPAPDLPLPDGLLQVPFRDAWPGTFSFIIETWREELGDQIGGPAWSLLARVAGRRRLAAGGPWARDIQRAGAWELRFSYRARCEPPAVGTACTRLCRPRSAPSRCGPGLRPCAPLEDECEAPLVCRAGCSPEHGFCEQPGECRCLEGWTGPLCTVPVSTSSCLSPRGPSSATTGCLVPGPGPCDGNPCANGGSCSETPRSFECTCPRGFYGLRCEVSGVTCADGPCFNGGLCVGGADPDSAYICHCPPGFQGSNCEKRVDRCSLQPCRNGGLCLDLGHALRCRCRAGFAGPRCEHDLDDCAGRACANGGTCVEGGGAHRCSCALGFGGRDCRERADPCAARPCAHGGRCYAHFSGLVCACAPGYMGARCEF
Text: Two target formats were chosen: i) the first target protein consisted of the extracellular domain of human DLL3 protein (Q9NYJ7, Gene ID: 10683, residues 27 to 466) linked via an Avi-tag (for site-directed biotinylation), followed by a 3C protease recognition site, to a Fc knob into hole (hDLL3-Avi-Fckih); ii) the second target protein consisted of a very similar design including more residues of the extracellular domain of DLL3 (Q9NYJ7, Gene ID: 10683, res 27-470), directly linked to the Fc knob into hole domain followed by an Avi-tag (hDLL3-Fckih-Avi).
hDLL3-Avi-Fckih was expressed in CHO cells (Chinese hamster ovary cells) by Evitria and purified by a protein A derivative-based affinity chromatography followed by preparative size-exclusion chromatography (SEC). The material was up-concentrated in PBS pH 7.4 to 0.69 mg/ml and in vitro biotinylated using recombinant BirA. The final material was monomeric on size exclusion and stored in PBS pH 7.4 at the final concentration of 0.35 mg/ml.
The binding of 2D ankyrin repeat protein MAM279 as well as of MAM279 conjugated to the chelator DOTAM (the conjugation was performed as described in Example 3) to different target proteins was analyzed by Surface Plasmon Resonance (SPR). Specifically, the proteins analyzed were (i) MAM279 (SEQ ID NO: 11), with a Glycine-Serine (GS) at its N-terminal end and an N-terminal His-tag (SEQ ID NO: 19); and (ii) MAM279 (SEQ ID NO: 11), with a Glycine-Serine (GS) at its N-terminal end and a tag (SEQ ID NO: 10) at its C-terminal end (resulting in GS-MAM279-tag (SEQ ID NO: 15)), conjugated to the chelator DOTAM as described in Example 3.
A surface plasmon resonance (SPR) assay was used to determine the binding kinetics of the two proteins (i.e. MAM279 with and without conjugation to chelator) to different targets: the Extra-Cellular Domain (ECD) of human DLL3, the ECD of cynomolgus monkey DLL3, the N-Terminal Domain (NTD) only of human DLL3, and the NTD dog DLL3. The data were generated using BioRad ProteOn instrument in SPR running buffer (PBS, pH 7.4 containing 0.005% Tween 20©). […] The chip was coated with biotinylated target to reach a signal intensity of 1516 RU (human ECD), 257 RU (human NTD), 1500 RU (cyno ECD) and 228 RU (dog NTD). All analytes (various concentrations in 3-fold dilutions ranging from 500-6.17 nM) were injected in succession for 240 s (100 μl/min) and dissociation was recorded for 10800 s (100 μl/min). Each injection was followed by a regeneration step with 16 mM H3PO4 for 18 s. […] The obtained SPR traces were used to determine on-rate and off-rate interaction parameters.

[1] = Thermal stability by Circular Dichroism (CD) spectroscopy; assay type: physicochemical; details: CD at 222 nm, 20° C. to 90° C., 2 μM in PBS pH7.4; DARPins with C-terminal Cysteine-containing tag (SEQ ID NOs: 15, 16, 18)
Experimental: Labelling of proteins conjugated to a chelator with a radionuclide may require harsh conditions, including high temperatures. The thermal stability and the propensity to unfold/refold of 2D DARPins MAM279, MAM283 and MAM282 were assessed using Circular Dichroism (CD) spectroscopy.
Samples of the DARPins were diluted to 2 μM in PBS, pH7.4. The assessment was done using a Jasco J-815 spectrophotometer. The Tm (melting temperature) of the selected proteins was determined by CD as a parameter for thermal stability. In brief, the ellipticity was recorded at […] and a temperature range from 20° C. to 90° C. was applied followed by reverse scan to record the refolding behavior. The Tm of the selected ankyrin repeat protein constructs is the midpoint of the protein unfolding. Spectra from 190-250 nm were recorded before and after the temperature scan.

[2] = athymic nude mice, 4 h, Example 7
[3] = athymic nude mice, 24 h, Example 7
[4] = athymic nude mice, 4 h, Example 8
[5] = athymic nude mice, 24 h, Example 8

B1: MAM279 conjugate: SEQ ID NO: 15 conjugated to DOTAM-maleimide, labelled with Pb-212 (natural lead in PK studies) (conjugate)
chain: GSDLGKKLLEAARAGQDDEVRELLKAGADVNAKDYFSHTPLHLAARNGHLKIVEVLLKAGADVNAKDFAGKTPLHLAADAGHLEIVEVLLKAGADVNAQDIFGKTPADIAADAGHEDIAEVLQKAAGSPTPTPTTPTPTPTTPTPTPTGSDLGKKLLAAAAQGQDDEVRELLKAGANVNAKDLFGYTPLHLAAWRGHLEIVEVLLKAGADVNAKDAAGETPLHLAAWFGHLEIVEVLLKAGADVNAQDLQGKTPADLAAKEGHEDIAEVLQKAAGSGSC
modifications: DOTAM-maleimide, Pb-212 label; Ankyrin repeat protein with tag (GS-MAM279-tag)
T:K ratio (hDLL3-MC38 tumor model; athymic nude mice, 24 h, Example 9): above 1

B2: MAM279-DOTAM: GS-MAM279-tag (SEQ ID NO: 15) conjugated to the chelator DOTAM via C-terminal tag and maleimide connector, no radionuclide (conjugate)
chain: GSDLGKKLLEAARAGQDDEVRELLKAGADVNAKDYFSHTPLHLAARNGHLKIVEVLLKAGADVNAKDFAGKTPLHLAADAGHLEIVEVLLKAGADVNAQDIFGKTPADIAADAGHEDIAEVLQKAAGSPTPTPTTPTPTPTTPTPTPTGSDLGKKLLAAAAQGQDDEVRELLKAGANVNAKDLFGYTPLHLAAWRGHLEIVEVLLKAGADVNAKDAAGETPLHLAAWFGHLEIVEVLLKAGADVNAQDLQGKTPADLAAKEGHEDIAEVLQKAAGSGSC
modifications: DOTAM chelator via maleimide on C-terminal tag; Ankyrin repeat protein with tag (GS-MAM279-tag)
Koff Human DLL3-ECD (Human DLL3-ECD): 1.64e-05 s⁻¹ | Kon Human DLL3-ECD (Human DLL3-ECD): 67400 M⁻¹ s⁻¹

B3: MAM283: Two domain (2D) ankyrin repeat protein: serum albumin-specific domain (SEQ ID NO: 7), PT linker, DLL3-specific domain (SEQ ID NO: 3) (protein)
chain: DLGKKLLEAARAGQDDEVRELLKAGADVNAKDYFSHTPLHLAARNGHLKIVEVLLKAGADVNAKDFAGKTPLHLAADAGHLEIVEVLLKAGADVNAQDIFGKTPADIAADAGHEDIAEVLQKAAGSPTPTPTTPTPTPTTPTPTPTGSDLGKKLLAAAADGQDDEVRELLQAGADVNAKDLFGYTPLHLAAWRGHLEIVEVLLEAGADVNAKDAAGETPLHLAAWFGHLEIVEVLLEAGADVNAQDVQGKTPADLAAKEGHEDIAEVLQQAA
modifications: Ankyrin repeat protein (MAM283)
Blood % ID/g (hDLL3-MC38 tumor model; [2]): 21.1 % ID/g | Kidneys % ID/g (hDLL3-MC38 tumor model; [2]): 16.9 % ID/g | Tumors % ID/g (hDLL3-MC38 tumor model; [2]): 22.5 % ID/g | Blood % ID/g (hDLL3-MC38 tumor model; [3]): 0.8 % ID/g | Kidneys % ID/g (hDLL3-MC38 tumor model; [3]): 26.8 % ID/g | Tumors % ID/g (hDLL3-MC38 tumor model; [3]): 45.5 % ID/g | melting temperature (Tm) [1]: about 82 °C

B4: MAM160: Two domain (2D) ankyrin repeat protein: serum albumin-specific domain (SEQ ID NO: 7), PT linker, DLL3-specific domain MAM120 (protein)
chain: DLGKKLLEAARAGQDDEVRELLKAGADVNAKDYFSHTPLHLAARNGHLKIVEVLLKAGADVNAKDFAGKTPLHLAADAGHLEIVEVLLKAGADVNAQDIFGKTPADIAADAGHEDIAEVLQKAAGSPTPTPTTPTPTPTTPTPTPTGSDLGTKLLSAAADGQDDEVRELLQAGADVNAKDLFGYTPLHLAAWRGHLEIVEVLLEAGADVNAKDAAGLTPLHLAAWFGHLEIVEVLLEAGADVNAQDVQGVTPADLAAKEGHEDIAEVLQQAA
modifications: Ankyrin repeat protein (MAM160)
Blood % ID/g (hDLL3-MC38 tumor model; athymic mice, 1 h, Example 4): 38 % ID/g | Kidneys % ID/g (hDLL3-MC38 tumor model; athymic mice, 1 h, Example 4): 12 % ID/g | T:K ratio (hDLL3-MC38 tumor model; athymic mice, 1 h, Example 4): 0.58 | Tumors % ID/g (hDLL3-MC38 tumor model; athymic mice, 1 h, Example 4): 7 % ID/g | Blood % ID/g (hDLL3-MC38 tumor model; athymic mice, 4 h, Example 4): 25 % ID/g | Kidneys % ID/g (hDLL3-MC38 tumor model; athymic mice, 4 h, Example 4): 12 % ID/g | T:K ratio (hDLL3-MC38 tumor model; athymic mice, 4 h, Example 4): 1.42 | Tumors % ID/g (hDLL3-MC38 tumor model; athymic mice, 4 h, Example 4): 17 % ID/g | Blood % ID/g (hDLL3-MC38 tumor model; athymic mice, 24 h, Example 4): 3 % ID/g | Kidneys % ID/g (hDLL3-MC38 tumor model; athymic mice, 24 h, Example 4): 17 % ID/g | T:K ratio (hDLL3-MC38 tumor model; athymic mice, 24 h, Example 4): 1.53 | Tumors % ID/g (hDLL3-MC38 tumor model; athymic mice, 24 h, Example 4): 26 % ID/g | Blood % ID/g (hDLL3-MC38 tumor model; [2]): 17.9 % ID/g | Kidneys % ID/g (hDLL3-MC38 tumor model; [2]): 11.6 % ID/g | Tumors % ID/g (hDLL3-MC38 tumor model; [2]): 18.8 % ID/g | Blood % ID/g (hDLL3-MC38 tumor model; [3]): 1.9 % ID/g | Kidneys % ID/g (hDLL3-MC38 tumor model; [3]): 18 % ID/g | Tumors % ID/g (hDLL3-MC38 tumor model; [3]): 28.9 % ID/g

B5: MAM282: Two domain (2D) ankyrin repeat protein: serum albumin-specific domain (SEQ ID NO: 7), PT linker, DLL3-specific domain (SEQ ID NO: 2) (protein)
chain: DLGKKLLEAARAGQDDEVRELLKAGADVNAKDYFSHTPLHLAARNGHLKIVEVLLKAGADVNAKDFAGKTPLHLAADAGHLEIVEVLLKAGADVNAQDIFGKTPADIAADAGHEDIAEVLQKAAGSPTPTPTTPTPTPTTPTPTPTGSDLGKKLLAAAREGQDDEVRELLKAGADVNAKDIWGQTPLHIAAWFGHLEIVEVLLKAGADVNAKDQTGHTPLHLAAKFGHLEIVEVLLKAGADVNAQDLLGRTPADLAAEEGHEDIAEVLQKAA
modifications: Ankyrin repeat protein (MAM282)
Blood % ID/g (hDLL3-MC38 tumor model; [4]): 28.6 % ID/g | Kidneys % ID/g (hDLL3-MC38 tumor model; [4]): 19.4 % ID/g | Tumors % ID/g (hDLL3-MC38 tumor model; [4]): 21.4 % ID/g | Blood % ID/g (hDLL3-MC38 tumor model; [5]): 9.9 % ID/g | Kidneys % ID/g (hDLL3-MC38 tumor model; [5]): 27.9 % ID/g | Tumors % ID/g (hDLL3-MC38 tumor model; [5]): 51.9 % ID/g | melting temperature (Tm) [1]: above 90 °C
